Data set [1] relates to HeLa Kyoto. As to the kind of experiment: solubility change mitosis vs G1/S (difference of NP-40 vs SDS log2 ratios) (log2 ratio difference); higher = more soluble in mitosis.
Data set [2] concerns HeLa Kyoto. As to the kind of experiment: solubility in G1/S (NP-40 vs SDS abundance) (log2 ratio); higher = more soluble. The conditions noted are these: cell cycle stage: G1/S.
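For solubility change mitosis vs G1/S (difference of NP-40 vs SDS log2 ratios) in this document: synchronized HeLa Kyoto cells (double thymidine block for G1/S, nocodazole release for mitosis), protein amounts in NP-40 versus SDS lysates quantified by mass spectrometry, three biological replicates.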
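For solubility in G1/S (NP-40 vs SDS abundance) in this document: HeLa Kyoto cells arrested at G1/S by double thymidine block, proteins quantified by TMT10plex mass spectrometry in mild NP-40 versus SDS extracts, three biological replicates.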

With “MDPDPQAGVQVGMRVVRGVDWKWGQQDGGEGGVGTVVELGRHGSPSTPDRTVVVQWDQGTRTNYRAGYQGAHDLLLYDNAQIGVRHPNIICDCCKKHGLRGMRWKCRVCLDYDLCTQCYMHNKHELAHAFDRYETAHSRPVTLSPRQGLPRIPLRGIFQGAKVVRGPDWEWGSQDGGEGKPGRVVDIRGWDVETGRSVASVTWADGTTNVYRVGHKGKVDLKCVGEAAGGFYYKDHLPRLGKPAELQRRVSADSQPFQHGDKVKCLLDTDVLREMQEGHGGWNPRMAEFIGQTGTVHRITDRGDVRVQFNHETRWTFHPGALTKHHSFWVGDVVRVIGDLDTVKRLQAGHGEWTDDMAPALGRVGKVVKVFGDGNLRVAVAGQRWTFSPSCLVAYRPEEDANLDVAERARENKSSLSVALDKLRAQKSDPEHPGRLVVEVALGNAARALDLLRRRPEQVDTKNQGRTALQVAAYLGQVELIRLLLQARAGVDLPDDEGNTALHYAALGNQPEATRVLLSAGCRADAINSTQSTALHVAVQRGFLEVVRALCERGCDVNLPDAHSDTPLHSAISAGTGASGIVEVLTEVPNIDVTATNSQGFTLLHHASLKGHALAVRKILARARQLVDAKKEDGFTALHLAALNNHREVAQILIREGRCDVNVRNRKLQSPLHLAVQQAHVGLVPLLVDAGCSVNAEDEEGDTALHVALQRHQLLPLVADGAGGDPGPLQLLSRLQASGLPGSAELTVGAAVACFLALEGADVSYTNHRGRSPLDLAAEGRVLKALQGCAQRFRERQAGGGAAPGPRQTLGTPNTVTNLHVGAAPGPEAAECLVCSELALLVLFSPCQHRTVCEECARRMKKCIRCQVVVSKKLRPDGSEVASAAPAPGPPRQLVEELQSRYRQMEERITCPICIDSHIRLVFQCGHGACAPCGSALSACPICRQPIRDRIQIFV [MIB2]”, in the data set with HeLa Kyoto [1], the “solubility change mitosis (log2)” value was -0.0211. Moreover, the “solubility in G1/S (log2)” value in the data set with HeLa Kyoto [2] was -0.12.
Take “MDPIRSFCGKLRSLASTLDCETARLQRALDGEESDFEDYPMRILYDLHSEVQTLKDDVNILLDKARLENQEGIDFIKATKVLMEKNSMDIMKIREYFQKYGYSPRVKKNSVHEQEAINSDPELSNCENFQKTDVKDDLSDPPVASSCISEKSPRSPQLSDFGLERYIVSQVLPNPPQAVNNYKEEPVIVTPPTKQSLVKVLKTPKCALKMDDFECVTPKLEHFGISEYTMCLNEDYTMGLKNARNNKSEEAIDTESRLNDNVFATPSPIIQQLEKSDAEYTNSPLVPTFCTPGLKIPSTKNSIALVSTNYPLSKTNSSSNDLEVEDRTSLVLNSDTCFENLTDPSSPTISSYENLLRTPTPPEVTKIPEDILQLLSKYNSNLATPIAIKAVPPSKRFLKHGQNIRDVSNKEN [SKA3]”: the “solubility change mitosis (log2)” value in the data set on HeLa Kyoto [1] amounted to 0.0344. Moreover, in the data set on HeLa Kyoto [2], the “solubility in G1/S (log2)” value worked out at 0.436.
Turning to “MDPLRAQQLAAELEVEMMADMYNRMTSACHRKCVPPHYKEAELSKGESVCLDRCVSKYLDIHERMGKKLTELSMQDEELMKRVQQSSGPA [TIMM10]”, the “solubility change mitosis (log2)” value with HeLa Kyoto [1] was found to be 0.197. For the same sequence, the “solubility in G1/S (log2)” value with HeLa Kyoto [2] is -0.415.
The matching figures for “MDPRGILKAFPKRQKIHADASSKVLAKIPRREEGEEAEEWLSSLRAHVVRTGIGRARAELFEKQIVQHGGQLCPAQGPGVTHIVVDEGMDYERALRLLRLPQLPPGAQLVKSAWLSLCLQERRLVDVAGFSIFIPSRYLDHPQPSKAEQDASIPPGTHEALLQTALSPPPPPTRPVSPPQKAKEAPNTQAQPISDDEASDGEETQVSAADLEALISGHYPTSLEGDCEPSPAPAVLDKWVCAQPSSQKATNHNLHITEKLEVLAKAYSVQGDKWRALGYAKAINALKSFHKPVTSYQEACSIPGIGKRMAEKIIEILESGHLRKLDHISESVPVLELFSNIWGAGTKTAQMWYQQGFRSLEDIRSQASLTTQQAIGLKHYSDFLERMPREEATEIEQTVQKAAQAFNSGLLCVACGSYRRGKATCGDVDVLITHPDGRSHRGIFSRLLDSLRQEGFLTDDLVSQEENGQQQKYLGVCRLPGPGRRHRRLDIIVVPYSEFACALLYFTGSAHFNRSMRALAKTKGMSLSEHALSTAVVRNTHGCKVGPGRVLPTPTEKDVFRLLGLPYREPAERDW [POLL]”: -0.00139 and 0.0728.
As to “MDPSADTWDLFSPLISLWINRFYIYLGFAVSISLWICVQIVIKTQGKNLQEKSVPKAAQDLMTNGYVSLQEKDIFVSGVKIFYGSQTGTAKGFATVLAEAVTSLDLPVAIINLKEYDPDDHLIEEVTSKNVCVFLVATYTDGLPTESAEWFCKWLEEASIDFRFGKTYLKGMRYAVFGLGNSAYASHFNKVGKNVDKWLWMLGAHRVMSRGEGDCDVVKSKHGSIEADFRAWKTKFISQLQALQKGERKKSCGGHCKKGKCESHQHGSEEREEGSHEQDELHHRDTEEEEPFESSSEEEFGGEDHQSLNSIVDVEDLGKIMDHVKKEKREKEQQEEKSGLFRNMGRNEDGERRAMITPALREALTKQGYQLIGSHSGVKLCRWTKSMLRGRGGCYKHTFYGIESHRCMETTPSLACANKCVFCWRHHTNPVGTEWRWKMDQPEMILKEAIENHQNMIKQFKGVPGVKAERFEEGMTVKHCALSLVGEPIMYPEINRFLKLLHQCKISSFLVTNAQFPAEIRNLEPVTQLYVSVDASTKDSLKKIDRPLFKDFWQRFLDSLKALAVKQQRTVYRLTLVKAWNVDELQAYAQLVSLGNPDFIEVKGVTYCGESSASSLTMAHVPWHEEVVQFVHELVDLIPEYEIACEHEHSNCLLIAHRKFKIGGEWWTWIDYNRFQELIQEYEDSGGSKTFSAKDYMARTPHWALFGASERGFDPKDTRHQRKNKSKAISGC [TYW1]”, in the data set on HeLa Kyoto [1], the “solubility change mitosis (log2)” value is -0.205. The “solubility in G1/S (log2)” value with HeLa Kyoto [2] is -0.157.
In the case of “MDPVVLSYMDSLLRQSDVSLLDPPSWLNDHIIGFAFEYFANSQFHDCSDHVSFISPEVTQFIKCTSNPAEIAMFLEPLDLPNKRVVFLAINDNSNQAAGGTHWSLLVYLQDKNSFFHYDSHSRSNSVHAKQVAEKLEAFLGRKGDKLAFVEEKAPAQQNSYDCGMYVICNTEALCQNFFRQQTESLLQLLTPAYITKKRGEWKDLITTLAKK [SENP8]”, the “solubility change mitosis (log2)” value in the data set on HeLa Kyoto [1] is -0.151. For the same sequence, in the data set with HeLa Kyoto [2], the “solubility in G1/S (log2)” value was determined as 0.62.
Consider “MDQFGDILEGEVDHSFFDSDFEEGKKCETNSVFDKQNDDPKERIDKDTKNVNSNTGMQTTENYLTEKGNERNVKFPPEHPVENDVTQTVSSFSLPASSRSKKLCDVTTGLKIHVSIPNRIPKIVKEGEDDYYTDGEESSDDGKKYHVKSKSAKPSTNVKKSIRKKYCKVSSSSSSSLSSSSSGSGTDCLDAGSDSHLSDSSPSSKSSKKHVSGITLLSPKHKYKSGIKSTETQPSSTTPKCGHYPEESEDTVTDVSPLSTPDISPLQSFELGIANDQKVKIKKQENVSQEIYEDVEDLKNNSKYLKAAKKGKEKHEPDVSSKSSSVLDSSLDHRHKQKVLHDTMDLNHLLKAFLQLDKKGPQKHHFDQPSVAPGKNYSFTREEVRQIDRENQRLLKELSRQAEKPGSKSTIPRSADHPPKLYHSALNRQKEQQRIERENLALLKRLEAVKPTVGMKRSEQLMDYHRNMGYLNSSPLSRRARSTLGQYSPLRASRTSSATSGLSCRSERSAVDPSSGHPRRRPKPPNVRTAWL [CFAP97]”, for which the “solubility change mitosis (log2)” value in the data set on HeLa Kyoto [1] was -0.039. The “solubility in G1/S (log2)” value in the data set with HeLa Kyoto [2] amounted to 0.0651.
With “MDRRKKPLDVTASSLVDLKAELFRKQEEFKQEKLLKDSGVFGKPKTTNKKPSIWSKQNVGVSNRAEKDAEQKIEEQKTLDKAREKLEEKAKLYEKMTKGDFIDEEVEDMYLVDFTQKIIDKRKEMEASGAHRDSQKAGERDDDEENLPEGEIPPPQDPSEEWVDYVDSLGRSRRCMRKDLPDLLEMDKNLQGRLFISPANEKTLLSEDMRKELQRQQWEEEEREALKRPMGPVHYEDIRENEARQLGVGYFAFARDKELRNKQMKTLEMLREQTTDQRTKRENIKEKRKAILEARLAKLRQKKMKKSKEGGTEEENRDGDVIGPLPPEPEAVPTPRPAAQSSKVEVIVQERKDTKPGVPHIREWDRGKEFSFGYWSKRQSDLRAERDPEFAPPSDYFVGQKRTGFSSSQAWSRPGPAQSDPGQCPDQSHGPSPEHTSPTPAPDNPPQAPTVTFKTLDDMISYYKQVT [CCDC174]”, the “solubility change mitosis (log2)” value in the data set with HeLa Kyoto [1] came out at 0.139. Further, the “solubility in G1/S (log2)” value in the data set on HeLa Kyoto [2] was determined as 0.12.
In the case of “MDSSSSSSAAGLGAVDPQLQHFIEVETQKQRFQQLVHQMTELCWEKCMDKPGPKLDSRAEACFVNCVERFIDTSQFILNRLEQTQKSKPVFSESLSD [TIMM8A]”, the “solubility change mitosis (log2)” value in the data set on HeLa Kyoto [1] was 0.392. The “solubility in G1/S (log2)” value in the data set on HeLa Kyoto [2] was -0.653.
Turning to “MEAEESEKAATEQEPLEGTEQTLDAEEEQEESEEAACGSKKRVVPGIVYLGHIPPRFRPLHVRNLLSAYGEVGRVFFQAEDRFVRRKKKAAAAAGGKKRSYTKDYTEGWVEFRDKRIAKRVAASLHNTPMGARRRSPFRYDLWNLKYLHRFTWSHLSEHLAFERQVRRQRLRAEVAQAKRETDFYLQSVERGQRFLAADGDPARPDGSWTFAQRPTEQELRARKAARPGGRERARLATAQDKARSNKGLLARIFGAPPPSESMEGPSLVRDS [ABT1]”, the “solubility change mitosis (log2)” value with HeLa Kyoto [1] was found to be 0.803. For the same sequence, in the data set with HeLa Kyoto [2], the “solubility in G1/S (log2)” value was -0.95.
Regarding “MEDERSFSDICGGRLALQRRYYSPSCREFCLSCPRLSLRSLTAVTCTVWLAAYGLFTLCENSMILSAAIFITLLGLLGYLHFVKIDQETLLIIDSLGIQMTSSYASGKESTTFIEMGKVKDIVINEAIYMQKVIYYLCILLKDPVEPHGISQVVPVFQSAKPRLDCLIEVYRSCQEILAHQKATSTSP [PIGH]”, the “solubility change mitosis (log2)” value with HeLa Kyoto [1] came out at 0.146. Moreover, the “solubility in G1/S (log2)” value in the data set with HeLa Kyoto [2] is -0.116.
The matching figures for “MEDGTPKHIIQMTGFKMEEKEALVKLLLKLDCTFIKSEKYKNCTHLIAERLCKSEKFLAACAAGKWILTKDYIIHSAKSGRWLDETTYEWGYKIEKDSRYSPQMQSAPKRWREELKRTGAPGAFHRWKVVLLVRTDKRSDSLIRVLEAGKANVILPKSSPSGITHVIASNARIKAEKEKDNFKAPFYPIQYLGDFLLEKEIQNDEDSQTNSVWTEHSNEETNKDFRKDAGFLEMKGALRETMYRTQKEMQNHEDVNVGSILIQHHKKEKFSGSSKDLKFVKMRNTFGSHTYENQKEIKKKDEDIQRSYTLRRKRKKGKESNCKKGVEHEKIKSTLRRHIYNRDQKEMKNSIFAEYAKESKAMAIKTDVDVVEIKNTLRKHIYRAQAVRYNCIRIDKQPVYNVEVKNAEFPRGVLNLIESLIEGHFFKEAIEELSTLQAHYIPPVCVLHALLENVLQDNIDTFSGRYFHILSALLHLHPPWKSPAMSRYYLELFQCPTCMKGAWSLVEVLIRSCLFNESFCHQISENIGSKVLHLTLLKFFFNLIESEVQHLSQKLYDWSDSQNLKITGKAMLLEIFWSGSETSGLLTKPVNMLLEWTIYSHKEKFKSNDVFKHELAYLLAGILGAAIDYWIFLGLKMGRNVMRHMSDDLGSYVSLSCDDFSSQELEIFICSFSSSWLQMFVAEAVFKKLCLQSSGSVSSEPLSLQKMVYSYLPALGKTGVLGSGKIQVSKKIGQRPCFDSQRTLLMLNGTKQKQVEGLPELLDLNLAKCSSSLKKLKKKSEGELSCSKENCPSVVKKMNFHKTNLKGETALHRACINNQVEKLILLLSLPGIDINVKDNAGWTPLHEACNYGNTVCVQEILQRCPEVDLLTQVDGVTPLHDALSNGHVEIGKLLLQHGGPVLLQQRNAKGELPLDYVVSPQIKEELFAITKIEDTVENFHAQAEKHFHYQQLEFGSFLLSRMLLNFCSIFDLSSEFILASKGLTHLNELLMACKSHKETTSVHTDWLLDLYAGNIKTLQKLPHILKELPENLKVCPGVHTEALMITLEMMCRSVMEFS [SLF1]”: 0.644 and -0.991.
